The values that follow come from publication PMC10119233.

Assay [1] concerns the target N1_(10-14)Fc, Notch1 EGF-like repeats 10–14 fused to human IgG Fc (human) (UniProt P46531). Nature of the assay: mass photometry; purified Notch decoys; oligomeric state.
The target in assay [2] is Recombinant Fc-tagged hDLL4 (human) (UniProt Q9NR61). Nature of the assay: SPR; Biacore T200, CM5 chip; hDLL4-Fc or hJAG1-Fc on the chip (amine coupling by the results; captured after immobilising human IgG Fc by the methods), up to 20,000 RU; N1_(10-14)Fc or N4_(10-14)Fc as analyte, multi-cycle kinetics; HBS-N (10 mM HEPES, 150 mM NaCl), 0.005% Tween 20, 1 mM CaCl2, 2 mM MgCl2, pH 7.4; 25 °C, 25 μl/min; KD = kd/ka. On the technique in general: In SPR one partner is held on a chip, and binding of the other changes the refractive index at the surface.
Recombinant Fc-tagged hDLL4 (human), sequence (Q9NR61 27-529): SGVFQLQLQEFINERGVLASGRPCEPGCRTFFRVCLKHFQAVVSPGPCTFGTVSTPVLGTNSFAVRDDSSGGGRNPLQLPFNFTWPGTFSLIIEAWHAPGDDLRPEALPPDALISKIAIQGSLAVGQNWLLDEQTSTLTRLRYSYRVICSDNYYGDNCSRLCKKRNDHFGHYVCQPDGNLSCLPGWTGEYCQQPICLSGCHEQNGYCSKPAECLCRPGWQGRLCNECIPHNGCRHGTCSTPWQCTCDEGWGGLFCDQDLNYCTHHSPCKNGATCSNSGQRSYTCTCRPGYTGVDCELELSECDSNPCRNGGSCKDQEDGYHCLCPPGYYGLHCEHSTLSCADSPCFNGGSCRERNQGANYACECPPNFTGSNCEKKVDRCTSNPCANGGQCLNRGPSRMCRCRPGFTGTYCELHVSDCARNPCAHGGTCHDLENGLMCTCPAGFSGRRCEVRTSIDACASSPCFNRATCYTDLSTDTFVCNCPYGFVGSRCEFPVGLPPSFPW

Assay [3] addresses N4_(10-14)Fc, Notch4 EGF-like repeats 10–14 fused to human IgG Fc (human) (UniProt Q99466). Nature of the assay: mass photometry; purified Notch decoys; oligomeric state.

By stoichiometry N is commonly meant a count of units in the complex or per binding partner. “N1_(10-14)Fc, Notch1 EGF-like repeats 10–14 fused to human IgG Fc (from UniProt P46531 19-2555) (Fc fusion)” came in with a stoichiometry N in assay [1] of 2.
By Kd is commonly meant the free concentration of one partner at which half of the binding sites on the other are occupied at equilibrium, for simple one-to-one binding. With “N4_(10-14)Fc, Notch4 EGF-like repeats 10–14 fused to human IgG Fc (from UniProt Q99466 24-2003) (Fc fusion)”, in assay [2], the dissociation constant Kd is 963 nM. In assay [3], this substance returned a stoichiometry N of 2.
